# Assay results from the supplement of paper PMC12636428.
# Test system: Saccharomyces cerevisiae
# Assay: transcriptional activation domain activity (GFP:mCherry ratio, weighted mean of sorted bins, harmonized to initial dataset scale) (arbitrary fluorescence ratio units); higher = stronger transcriptional activation
# Conditions: beta-estradiol 1 µM; induction time 4 h
# Outline: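 Yeast diploids with a GFP reporter received barcoded protein tiles, fused to an estradiol-inducible synthetic transcription factor, at the URA3 locus. Cultures were diluted 1:5 into SC holding 1 uM beta-estradiol, incubated 4 hours at 30 °C, sorted into 8 bins on GFP:mCherry ratio, and sequenced for barcodes, with tiles under 50 reads discarded. Activation activity values come from the read-weighted mean of bin median fluorescence, averaged across barcodes and linearly placed on the initial dataset scale.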
row,Sequence,transcriptional activation domain activity
1,KKSDEKDDTKPKKKKAKHDDADKESKKKLKKASKEKKSKSTKSKKDTAENAIA,42900
2,MPPFFFGLWRIFFFFFFFFCKQLWWTVEFVTYVSCFFFLLNKLVFWLFFFSVC,58500
3,TLAPNGSSNLVHLFAAHSIGKVRSSLLSSLNRKFSSNPSSPCSYFLIFQLFTR,61100
4,MRLRVFFFISSFMWLLLVSFYCSFFSFAFTLFFFRFPPFFFSLFRFTLLPSPS,63700
5,MPLPLIFVYLSGQMLSFLGSLFGVYMYFASLVLNYLGLFSSLRLRLWSFFLTA,66200
6,MACCNQTWLYIPTNYYFAFLMFGISIVHVLFIQNQGFSRVIFFLFFAWDLFVS,84600
7,ILRKLGFIVHVQLPYNLMINYLRILGLEDDEVISRKAWNYLNDGLRTNIYVTY,55800
8,RDEAGGGARRESKKAGARRGRTAEKRGGRGHEGRRQEGGKATKAEGGAEGEGE,46500
9,GKKRKSTGAKSREQPKAKRIAKAKTKTGAFGAGRKGATAGHAKGRAAAAGPKA,59000
10,LLYHYPMCSVCVLCCVLFFSHLFSIFHVLSVLCCTFFWQCLSFFHYLIPLFLY,62300
11,TAATVPSATRAVVSATCRATALRVRSATTAAVTTTSPATARLPARPAPATTAS,34000
12,MMNNNESEAENQRLLDELMNQTKVLQETLDFSLVTPTPHHNDDYKIHGSAYPG,47300
13,SSTDPTVEPDAPGGSEAEEPAKSETKESPAKKKVVEEEEEEEQKKAEPNGSSS,30700
14,MEHQDFFGFDYGLFDDNFPITSNSLRYDDLFHFEPLDLEQDDLGWGLPDPSLS,143000
15,YLKELTRCAKLPYSTRAMKNLNNVAITCACTLLVSVPHFNFRGDLLKIIVAKV,39500
16,MFESVNLDENSPEDRELAKVLSPPGSYLSPASLDSGSSFTNSGTSTSCFEPKN,32400
17,NNNSRSTEDSEDDLAIVGHGTGVERLGGLDALILRQRLLALLIRVAEALPEDF,15200
18,ASNAPGTGASRSAAAAATAAISRAKGAAQQQQAQKKPDASSSRPAGKQPAVKE,26900
19,MPRLCLWLTCIYGVMYCMEFSLLVYALHSLANEYYPASYGDNLGCVTVNLHYY,44400
20,HEQKICAKYGSDVIFADNIDGGDSDEDERSTSCTCGKLRAIVARVMVAIGGDL,48400
21,LRAYPVPQALQIAGNESVSPCLVRCLRLLTVLADLLYMHRGFFARALNDHPKD,46700
22,NRNQDAAEPSAAASSSAAAPAETPARGGNRQNDGANNQGGNNQNNGGNNRQQE,41100
23,VNYHLAMRYFMRYLFTQDLLPLLLAAKEQCQQAHVMCVQGAGFGLRIRTDDIG,45000
24,VQASMAADYAISQFRFLHKLLLVQGHWSYARISEMILTFFFKNIFWVFPSLWY,56100
25,METSASARSPPPSTRQPSAPRRVRAALACQRCKGRKQKCEGGQPSCRSCIKAG,60700
26,MPVVKLMAEPFLFLFLFYLSVLALAFFYFFYFFYFFFLKILPGMMVFSSLGCF,55500
27,ARLRALEIIRAGHEGGYDGFFWGAWIPGLFHGKMTDIIALLLTHWGNVRNPAS,65700
28,NSSSNNNVSTVPSSMMHSSTLNGTSGLGGDNDDNMLALSLATLANSATASPRL,27900

row,Sequence,transcriptional activation domain activity
1,QDAGGSGDKKGGVYVHCAMGKSRSVTCVVAYLLYRYPHRYGGTAGSSSTAQRR,45800
2,MLAMISFFMYPPPLLFFFALWLSFSLFSIHKPPWLLFQNVHFYVLFLFFSFLA,36300
3,MFSYFVFLLTIVTFFHLIISFCFVFRCHYIVLLLLLQNVFIFCLFAHHCYIHV,31400
4,DGEGEDAEDGSKKDAEVAYHSGLGLKFRYPGDPKKLREASKLKLWTAYLKDHG,55100
5,MACLFPCMLIFIFLLFISSFFLCFFHSLVSHLPHCVLVLFFISFLLTILTFFF,50200
6,LVGDANGCRVLPAFQLWPLLSTFNLLYSISSTSWLLYWVFTSLCYPAIFLVCL,55700
7,SKDEEGEGEGEGDEEKVEEGGDEDGEQVEGEDGAKSAAATASAKKFSKREKEM,48900
8,SLLQHLAEYFICFDSVVSFLLTLVVNVFRLTSFGIIRLVGWRPVVFFFFPSIY,50900
9,MDLGSAVPAPRRRIRDRTSQACNRCRATKIRCDNQAPACSPCRAKKLECIRDP,37600
10,NWYWLASTMYFLYGESVIYYFKHIVLVDKVLLPLATHHRFISFVLYVIGFVFF,74800
11,GMPESTVEDVGGPSTATVEEGGPREVEATVQGVEEASTSAPVKRGRGRPRKTS,30800
12,MWVTQHCLLATQWALLCVPPFRGLLLLLLFLYVFKFLFGLRIFILYLVSMLVM,46100
13,MDGVFGDCFFFLCFIFVFCFITFFFFFGLLLLLCCYGLDGGYVLVFFFLFFFV,33500
14,MEGSEKAARVAPPAQRVRTGCLTCRKRHLKCDEAKPTCENCRKGRRECVRGLR,6710
15,PKSRPKKAKEEAVATGALGATGVVPEKRKRGRPRKIQPPIDGVALVAPPVAAP,51700
16,VIGGGATGSGVAVDAASRGLKVALVERDDFSSGTSSKSTKLVHGGVRYLQKAV,69700
17,KILVQAFKAVFTSPSSAKEADGDGEGADIIENNRRARRALYQVKVKTCVASII,42000
18,WVLNVHLCLFYLAAFGDSAFNVISAIRKLSELPFSYSLYLFAWLFISWDLLFV,70500
19,ALKILVLLIFLMDTLHTYGVISYQWGLFLFCHHNATSACLSVLPWEIFMAVVL,56300
20,AHVTMPYLLAIACHTAGIICMWICYCACLVWCSTVLPILLIIIIILIVFLNAN,25200
21,ALPERIKTFHAHGIFLALHCFLLQHGPQPISIWLLLALIKGRRRCLFPSIFFC,36200
22,AYNALQILSWTCRLICSSVLSLHWFRPGHESILQLYDSITFFLTMFFIELLSH,49100
23,INVTSPPPIDYLSIGDFSFFSFETTDLPFSIDSGVLLPSLSSFEQPIFDFNFI,143000
24,RWCARCMLLTATIHMGYFFSAWAPYDYIGYQLKNNKIVWKGLAAWCTLVWIVF,47700
25,HAVTYWMCLELTIHLFYTFNRRSTLYFWSILVSICSIISMTILLELIIFVYPL,56200
26,IIQKLCFITVKLFFTKYIPLQAILINLILIGYLMFVVRHFPYRYTTLNNLELI,55000
27,LHFCHRLLSRISSLLFCFLFYCLDVLFLSLFLLCFFFPFFFFLFFLFLFQHFA,54800
